For series [1], the target named is Hepatitis B Virus (HBV) capsid (core) protein Cp183, adyw wildtype (Hepatitis B Virus, adyw). The series can be described thus: negative-stain electron microscopy.
For series [2], the target named is Hepatitis B Virus (HBV) capsid protein Cp183-EEE (S155E/S162E/S170E) (Hepatitis B Virus, adyw). Description: negative-stain electron microscopy.
The series “SEC-MALS” concerns the molecule itself. Description: SEC-MALS. A general note: Size exclusion chromatography separates by hydrodynamic size, large species first.

Values joined by “and” are separate entries in the source; they are usually repeats but may differ in a detail not shown here. Equal values may be shown once.

The term stoichiometry N denotes the number of molecules, sites or subunits per partner or assembly. For the molecule “Hepatitis B Virus (HBV) capsid (core) protein Cp183, adyw wildtype (natural protein)”, the stoichiometry N in series [1] was 240 and 180. “Hepatitis B Virus (HBV) capsid protein Cp183-EEE (S155E/S162E/S170E) (natural protein)”: the stoichiometry N in series [2] is 240 and 180.

B1: Brome Mosaic Virus (BMV) capsid protein (natural protein)
chain: MSTSGTGKMTRAQRRAAARRNRWTARVQPVIVEPLAAGQGKAIKAIAGYSISKWEASSDAITAKATNAMSITLPHELSSEKNKELKVGRVLLWLGLLPSVAGRIKACVAEKQAQAEAAFQVALAVADSSKEVVAAMYTDAFRGATLGDLLNLQIYLYASEAVPAKAVVVHLEVEHVRPTFDDFFTPVYR
B1: the “stoichiometry N” value in “SEC-MALS” was found to be 180.

Source of the values: paper PMC2964155 (Virology, 2010).
